Laboratory results reported in the nanobody polyreactivity screen of Harvey et al. (2022).

assay: yeast display, Sf9 membrane polyspecificity reagent, FACS + sequencing; frameworks hold sequencing errors
In short: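 Synthetic nanobody libraries on Saccharomyces cerevisiae BJ5465 were galactose-induced for 36–48 hours, stained 1 hour at 4 °C with 10% biotinylated, detergent-solubilized Sf9 membrane reagent and enriched on streptavidin microbeads. FACS then separated cells into low and high (top ~1%) gates by anti-HA (expression) and streptavidin (reagent binding) fluorescence. Genes were colony-PCR amplified, MiSeq 2 × 250 sequenced and CDR-length filtered. A clone's polyreactivity label is that of its gate of origin.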

| Sequence | polyreactivity (PSR sort gate) |
| --- | --- |
| QVQLVESGGGLVQAGGSLRLSCAASVSIFGVKVMGWYRQAPGKERELVAAIDVSDTSTYYADSVKGRFTISRDNAKNTVYLQMNSLKAEDTAVYYCAARRTRYPFQFDYWGQGTQVTVSS | low polyreactivity |
| QVQLVESGGGLVQAGGSLRLSCAASGRIFSYNAMGWYRQAPGKERELVAAISYRGGSTYYADSVKGRFTISRDNAKNTVYLQMNSLNPEDTAVYYCNAEAYYPYGYDYWGQGTQVTVSS | low polyreactivity |
| QVQLVESGGGLVQAGGSLRLSCAASGYLWYYAMGWYRQSPGKERELVAAICWGGGSTFFADSVKGRFTISRDNAKNTVYLQMNSLKPEDTAVYYCAAVDAVGPTSHAMFYWGQGTQVTGSS | low polyreactivity |
| QVQLVESGGGLVQAGGSLRLSCAASGRTSVYNAMGWYRQAPGKERELVAAITYGGRTYYADSVKGRFTISRDNAKNTVYLQMNSLKPEDTAVYYCAAPFHPAYVGYDYWGQGTQVTVSS | low polyreactivity |
| QVQLVESGGGLVQAGGSLRLSCAASGSTFASNVMGWYRQAPGKERELVAAITRGDRTHYAHSVKGRFTISRDNAKNTVYLQMNSLKPEDPAVYYCAKVTTLGRSRDYWGQGTQVTVSS | low polyreactivity |
| QVQLVESGGGLVQAGGSLRLSCAASGSIFYTYAMGWYRQAPGKERELVASITNDDSTNYADSVKGRFTISRDNAKKTVYLQMNSLKPEDTAVYYCADDSNWIYDIEYDYWGQGTQVTVSS | low polyreactivity |
| QVQLVDSGGGLVQAGGSLRLSCAASGSIFWDYAMGWYRQAPGIERELVASIPSGGSTYYADSVKGRFTISRDNAKKTVYLQMNRLKPEDTAVYYCAADGHTRHWGQTGRGAMYYWGQGTQVTVSS | low polyreactivity |
| QVQLVESGGGLVQAGGSLRLSCAASGRTFFVNAMGWYRQAPGKERELVATITFSGDSTYYADSVKGRFTISRDNAKNTVYLQMNSLKPEDTAVYYCAVRWPSARIPVKLDYWGQGTQVTVSS | high polyreactivity |
| QVQLVESGGGLVQAGGSLRLSCAASGSTLGRYTMGWSRQAPGKERELVAAIRASGTSTYYADSVKGRFTISRDNAKNTVYLQMNSLKPEDTAVYYCNALQFGTVRLDSWGLGTQVTVSS | low polyreactivity |
| QVQLVESGGGLVQAGGSLRLRCAASGFIYIRNAMGWYRQAPGKERELVAAITRSGGRTYYADSVKGRFTISRDNAKNTVYLQMNSLIPEDTAVYYCASDAEAAWGQGTQVTVSS | high polyreactivity |
| QVQLVESGGGLVQAGGSLRLSCAASGSIFTWYVMGWYRQAPGKERELVAAITSGGRTYYADSVKGRFTISRDNAKKTVYLQMNSLKPEDTAVYYCAADSIGRLWGYGYWGQGTQVTVSS | high polyreactivity |
| QLQLVESGGGLVQAGGSLRLSCAASGSIFVVNAMGWYRQAPGKERELVAAISRGGITNYADSVKGRFTISRDNAKNTVYLQMNILKPEDTAVYYCNARGSRWVKPERDYWGQGTQVTVSS | low polyreactivity |
| QVQLVESGGGLVQAGGSLRLSCAASGSIFRYYAMGWYIQAPGKEMELVAAITSSGGSTYYADSVKGRFTISRDNAKNTVYLQMNSLKPEDTAVYDCNARHVRYSRRENDYWGQGTQGTVSS | high polyreactivity |
| QVQLVESGGGLVQAGGSLRLSCAASGYIFDGNAMGWYRQAPGKERELVASISSGTSTYYADSVKGRFTISRDNAKNTVYLQMNSLKPEDTAVYYCAGDYKWSGFGYWGQGTQVTVSS | low polyreactivity |
| QVQLVESGGGLVQAGGSLRLSCAASGRNFLSYMGWYRQAPGKERELVAISRSGTSTYYADSVKGRFTISRDNAKNTVYLQMNSLKPEDTAVYYCAAEVLRDGWWGYYYWGQGTQVTVSS | high polyreactivity |
| QVQLEESVGGLVQAGGSLRLSCAASGRIFVRNAMGWYRQAPGKERELVATITSIGGRTYYADSVKGRFTISRDNAKNTVYLQMNSLKPEDTAVYYCAAYNTQSYPAYLRYDYWGQGTQVTVSS | low polyreactivity |
| QVQLVESGGGLVQAGGSLRLSCAASGRIFESYAMGWYRQAPGKERELVAAISRSGGSTYYADSVKGRFTISRDNAKNTVYLQMNSLKPEDTAVYYCNTYYYHHYDYWGQGTQVTVSS | high polyreactivity |
| QVQLVESGGGLVQAGGSLRLSCAASGRILHHYAMGWYIQAHGKERELVAAIRWGGGSTYYADSVKGRFTISRDNAKNTVYLQMNSLKPEDTAVYYCAAEVVAGYDYSQYYYWGQCTQVTVSS | low polyreactivity |
| QVQLVESGGGLVQAGGSLRLSCAASGSTFYPNAMGWYRQAPGKERELVAAISGDDSTYYADSVKGRFTISRDNAKNTVYLQMNSLKPEDTAVYYCAAGDYRIGYLYYYWGQGTQVTVSS | low polyreactivity |
| QLQLVESGGGLVQAGGSLRLSCAASGITLYRYVMGWYRQAPGKERELVADISGRGTSTYYADSVKGRFTISRDNAKNTVYLQMNSLKPEDTSVYYCNAEYTKTGALVIPYTYYYAADYWGQGTQVTVSS | low polyreactivity |
| QVQLVESGRRLVQAGGSLRLTCAASGSTFTRYAMGWYRQAPGKERELVASISGSGGRTYYADSVKGRFTISRDNAMNTVYLQMNSLKPEDTAVYYCAAKITRRYYPGYLFDYWGQGNQVTVSS | high polyreactivity |
| QVQLVESGGGLVQAGGSLRLSCAASGSTFGVYGMGWYRQAPGKERELVASITSDGNTNYADSVKGRFTISRDNAKNTVYLQMNSLKPEDTAVYYCNTVGIQALYDYWGQGTQVTVSS | low polyreactivity |

| Sequence | polyreactivity (PSR sort gate) |
| --- | --- |
| QVQLVESGGGLVQAGGSLRLSCAASGSTFSVYGMGWYRQAPGKERELVAAITRGSRTYYADSVKGRFTISRDNAKNTVYLQMNSLKPEDTAVYYSAAKWWWRSYWGQGTQVTVSS | high polyreactivity |
| QGQHVDSGGVLVQAGGSLRLSCAASGITVYLYAMGWYRPAPGKEREMVATISRSGGSTYADSVKGRFTISRDNAKNTVYLQMYSLKPEDSAVYYCNADVLSTGYIAYDYWGQGTQVTVSS | low polyreactivity |
| QVQLVESVGCLVQARGSLRLSSAASGLIFPKYAMGWYRPAHGKERELVAAISSSGGSTYYADSVMGRFTISRVNAKNTVYLQMNSLKPEDTAVYYCAAKRFTTVTGYGYWGQGTQVTVSS | high polyreactivity |
| QVQLVESAGALVQAGGSLRLSCAASGRIFSVYAMGWYRQAPGKERELVATITYNGGSTYYADSVKGRFTISRDNAKNTVYLQMNSLKPEDTAVYYCAADWTYVRFDYWGQGTQVTVSS | low polyreactivity |
| QVQLVESGGGLVQAGGSLRLSCAASGSIFYQYGMGWYRQAPGKERELVAAITYDDDSTYYADSVKGRFTISRDNAKNTVYLQMNSLKPEDTAVYYCAAYYYKLEYDYWGQGTQVTVSS | high polyreactivity |
| QVQLVESGGGLVQAGGSLRLSCAASGRTLRPYAMGWYRQAPGKEREFVAAIRWSGGSTYYADSVKGRFTISRDNAKNTVYLQMNSLKPEDTAVYYCAASFLTYYLSLYDYWGQGTQVTVSS | high polyreactivity |
| QVQLVESGGGLVQAGGSLRLSCAASGYIFSGNAMGWYRQAPGKERELVAAITRSDVNTDYADSVKGRFTISRDNAKNTVYLQMNSLKPEDTAVYSCNTRVRASSVDYDEGDYWGQGTQVTVSS | low polyreactivity |
| HVQLQERGGGLVQAGGSLRLSCAASGSIFQATYMGWYRQAPGKEREFVASITYGSITNYADSVKGRFTIGRDNAKDTLYLQMNSLKPEDTAVYYCAVDRHYIPAFHYWGQCTQVTVSS | low polyreactivity |
| QVQLVESGGGLVQAGGSLRLSCAASGSIFYVYAMGWYRQAPGKERELVATISTGGSTYYADSVKGRFTISRDNAKNTVYLQMNSLKPEDTAVYYCNAQFTPRYRGGYDSWGQCTQVTVSS | low polyreactivity |
| QVQLVESGGGLVQAGGSLRLSCAASGRIFTYYGMGWYRQAPGKEWELVAAISSSGDSTFYADSVKGRFTISRDNAKNTVYLQMNSLKPEDTAVYYCAADYYYVWYDYWGQGTQVTVSS | low polyreactivity |
| QVQLVESGGGLVQAGGSLRLSCATSGFIFSLYAMGWYRQAPGKERELVAAINWNGGRTYYADSVKGRFTISRDNAKNTVYLQMDSLKPEDTAVYYCATRSGSYSYPAVGGWGLGYWGQGTQVTVSS | high polyreactivity |
| QVQLVESGGGLVQAGGSLRLSCAASGRILYRYAMGWYRQAPGKERELVAAITWRGGTTYYADSVKGRFTISRDNAKNTVYLQMISLKPEDTAVYYCNSDWWRTLESDYWGQGTQVTVSS | low polyreactivity |
| QVQLGESGGGLVQEGGSLRLSCAASGRILSRYAKGWYRQAPGKERELVAAISRSGGSTYYADSVKGRFTISRDNAKNTVYLQMNSLKPEDTAVYYWARDVSLSTGYDYWGQGTQVTVSS | high polyreactivity |
| QVQLVESGGGLVQAGGSLRLSCAASGSTFYYYAMGWYRQAPGKERELVAAISWSGGSTYYADSVKGRFTISRDNAKNTVYLQMNSLKPEDTAVYYCNKYVRFRGGAYVTGYDYWGQGTQVTVSS | high polyreactivity |
| QIQLVESCGGLVQPGGSLRLSCAASGFTFYRYSRGWYRQAPGKERELVAPISTSGVSTYYADSVKGRFTISRDNAKNTVYLQMNSLKPEDTAVYYWAASAGPRASYYYWGQGTQVTVSS | high polyreactivity |
| QVQLVESGGGLVQAGGSLSLSCAASGSIIPDYAMGWYRQAPGKERELVAAITWRDDSTYYADSVKGRFTISRDNAKNTVYLQMNSLKPEDTAVYYCNASALDPLYAKDDYWGQGTQVTVSS | low polyreactivity |
| QVQLVESGGGLVQAGGSLRLSCAASGRTFRGYAMGWYRQAPGKERELVAAITSGGSTNYADSVKGRFTISRDNAKNTVYLQMNSLKPEDTAVYYCNRDTSKYGLWRYIYDYWGQGTQVTVSS | low polyreactivity |
| QVQLVESGGGLVQAGGSLRLSCAASGRTLAHYTMGWYRQAPGKERELVAAITFSGGRTYYAHSVKGRFTISRDNAKNTVYLQMNSLKPEDTAVYYCAAPGRCYYRGDDYWGQGTQVTVSS | low polyreactivity |
| QVQLVESGGGLVQAGGSLRLSCAASGRTFEINAMGWYRQAPGKERELVAAITVSGGSTYYADSVKGRFTISRDNAKNTVYLQMNSLKPEDTAVYYCAVEIDYGQGKEVNSWGQGTQVTVSS | low polyreactivity |
| QVQLVESGGGLVQAGGSLRLSCAASGIIFEPNAMGWYRQAPGKERELVAAIDSGGITYYADSVKGRFTISRDNAKNTVYLEMNSLKPEDTAVYYCAKRAYTRQYWYGYGYWGQGTQVTVSS | high polyreactivity |
| QVQLVESGAGVGQAGGSLRLSCAASGSIFTPYAMGWYRPAPGKERELVAGITSGGNTNYADSVKGRFTISRDNAKNTVYLQMNSLKPEDTAVYYCAARYIYYYAYGYNYWGQGTKVTVSS | high polyreactivity |
